This is an account of results in article PMC3285272 (Cell, 2012).

Sequences and labels used below:
B1: S. cerevisiae Arf1 (residues 18–181) I43E with a C-terminal GST tag (domain or fragment, UniProt P11076 18-181, looked up)
chain: MRILMVGLDGAGKTTVLYKLKLGEVETTIPTIGFNVETVQYKNISFTVWDVGGQDRIRSLWRHYYRNTEGVIFVVDSNDRSRIGEAREVMQRMLNEDELRNAAWLVFANKQDLPEAMSAAEITEKLGLHSIRNRPWFIQATCATSGEGLYEGLEWLSNSLKNST

One assay has as its target T1, full-length γζ-COP dimer (B. taurus, UniProt P53620 1-874; P35604 1-177).
T1 sequence (looked up) 1: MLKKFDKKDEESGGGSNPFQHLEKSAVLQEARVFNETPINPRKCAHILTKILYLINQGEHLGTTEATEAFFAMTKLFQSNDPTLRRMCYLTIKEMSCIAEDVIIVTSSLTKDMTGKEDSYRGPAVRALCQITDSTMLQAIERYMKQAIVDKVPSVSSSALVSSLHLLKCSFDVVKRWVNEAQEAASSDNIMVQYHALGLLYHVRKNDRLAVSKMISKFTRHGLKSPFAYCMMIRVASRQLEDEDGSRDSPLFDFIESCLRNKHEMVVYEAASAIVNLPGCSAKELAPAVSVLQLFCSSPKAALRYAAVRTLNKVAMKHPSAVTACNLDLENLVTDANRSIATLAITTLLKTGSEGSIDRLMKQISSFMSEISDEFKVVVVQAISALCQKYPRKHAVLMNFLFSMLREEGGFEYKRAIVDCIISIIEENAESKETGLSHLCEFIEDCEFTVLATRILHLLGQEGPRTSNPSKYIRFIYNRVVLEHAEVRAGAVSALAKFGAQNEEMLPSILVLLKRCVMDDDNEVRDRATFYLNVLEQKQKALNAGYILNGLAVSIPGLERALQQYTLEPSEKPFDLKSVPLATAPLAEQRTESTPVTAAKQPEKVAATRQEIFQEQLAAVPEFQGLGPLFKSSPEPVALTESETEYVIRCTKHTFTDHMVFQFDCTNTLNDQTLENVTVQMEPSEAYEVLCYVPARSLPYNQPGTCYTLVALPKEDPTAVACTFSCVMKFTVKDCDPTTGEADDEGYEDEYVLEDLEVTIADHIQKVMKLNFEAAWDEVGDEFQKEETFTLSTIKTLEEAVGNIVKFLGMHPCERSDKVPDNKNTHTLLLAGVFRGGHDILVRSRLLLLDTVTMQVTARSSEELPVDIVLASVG
T1 sequence (looked up) 2: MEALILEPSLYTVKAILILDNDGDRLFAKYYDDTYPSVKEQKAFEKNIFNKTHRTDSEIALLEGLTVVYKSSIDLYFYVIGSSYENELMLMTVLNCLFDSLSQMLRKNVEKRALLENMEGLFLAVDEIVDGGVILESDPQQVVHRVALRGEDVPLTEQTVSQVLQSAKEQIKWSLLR
The assay can be described thus: pull-down.

Assay [1] concerns the target T2, γζ-COP core complex (bovine γ-COP 1–355 plus ζ-COP 1–153) (B. taurus, UniProt P53620 1-355; P35604 1-153).
T2 sequence (looked up) 1: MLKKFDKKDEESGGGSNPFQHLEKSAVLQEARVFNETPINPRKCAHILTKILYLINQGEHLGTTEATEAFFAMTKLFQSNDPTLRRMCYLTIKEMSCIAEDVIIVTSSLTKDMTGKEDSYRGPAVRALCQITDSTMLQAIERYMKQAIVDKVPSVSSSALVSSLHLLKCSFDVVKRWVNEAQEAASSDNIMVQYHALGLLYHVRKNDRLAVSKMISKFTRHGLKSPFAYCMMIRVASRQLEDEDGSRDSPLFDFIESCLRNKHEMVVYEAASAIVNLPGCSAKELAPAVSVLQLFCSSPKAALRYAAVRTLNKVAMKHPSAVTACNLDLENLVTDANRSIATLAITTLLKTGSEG
T2 sequence (looked up) 2: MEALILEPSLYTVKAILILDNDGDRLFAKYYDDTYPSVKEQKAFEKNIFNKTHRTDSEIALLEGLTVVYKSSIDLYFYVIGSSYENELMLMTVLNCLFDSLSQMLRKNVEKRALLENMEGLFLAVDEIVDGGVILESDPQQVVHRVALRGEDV
Put plainly: crystal structure.

In assay [2] the target is B1. The assay can be described thus: pull-down.
The target of assay [3] is full-length βδ/γζ-COP complex (R. norvegicus | B. taurus, UniProt P23514 1-953; P53619 1-511; P53620 1-874; P35604 1-177). Put plainly: GTPase fluorescence assay.

Regarding B1, the binding result with full-length γζ-COP dimer is given as “binds”.

B2: S. cerevisiae Arf1 (residues 18–181) complexed with GppNHp (domain or fragment, UniProt P11076 18-181, looked up)
chain: MRILMVGLDGAGKTTVLYKLKLGEVITTIPTIGFNVETVQYKNISFTVWDVGGQDRIRSLWRHYYRNTEGVIFVVDSNDRSRIGEAREVMQRMLNEDELRNAAWLVFANKQDLPEAMSAAEITEKLGLHSIRNRPWFIQATCATSGEGLYEGLEWLSNSLKNST
In the case of B2, in assay [1], the binding result is listed as “binds”.

B3: full-length βδ-COP dimer (complex, R. norvegicus | B. taurus)
chain 1: MTAAENVCYTLINVPMDSEPPSEISLKNDLEKGDVKSKTEALKKVIIMILNGEKLPGLLMTIIRFVLPLQDHTIKKLLLVFWEIVPKTTPDGRLLHEMILVCDAYRKDLQHPNEFIRGSTLRFLCKLKEAELLEPLMPAIRACLEHRHSYVRRNAVLAIYTIYRNFENLIPDAPELIHDFLVNEKDASCKRNAFMMLIHADQDRALDYLSTCIDQVQTFGDILQLVIVELIYKVCHANPSERARFIRCIYNLLQSSSPAVKYEAAGTLVTLSSAPTAIKAAAQCYIDLIIKESDNNVKLIVLDRLVELKEHPAHERVLQDLVMDILRVLSTPDLEVRKKTLQLALDLVSSRNVEELVIVLKKEVIKTNNVSEHEDTDKYRQLLVRTLHSCSVRFPDMAANVIPVLMEFLSDSNEAAAADVLEFVREAIQRFDNLRMLIVEKMLEVFHAIKSVKIYRGALWILGEYCSTKEDIQSVMTEVRRSLGEIPIVESEIKKEAGELKPEEEITVGPVQKLVTEMGTYATQSALSSSRPTKKEEDRPPLRGFLLDGDFFVAASLATTLTKIALRYVALVQEKKKQNSFVAEAMLLMATILHLGKSSLPKKPITDDDVDRISLCLKVLSECSPLMNDIFNKECRQSLSQMLSAKLEEEKLSQKKESEKRNVTVQPDDPISFMQLTAKNEMNCKEDQFQLSLLAAMGNTQRKEAADPLASKLNKVTQLTGFSDPVYAEAYVHVNQYDIVLDVLVVNQTSDTLQNCTLELATLGDLKLVEKPSPLTLAPHDFANIKANVKVASTENGIIFGNIVYDVSGAASDRNCVVLSDIHIDIMDYIQPATCTDAEFRQMWAEFEWENKVTVNTNVTDLNDYLQHILKSTNMKCLTPEKALSGYCGFMAANLYARSIFGEDALANVSIEKPVHQGPDAAVTGHIRIRAKSQGMALSLGDKINLSQKKTSL
chain 2: MVLLAAAVCTKAGKAIVSRQFVEMTRTRIEGLLAAFPKLMNTGKQHTFVETESVRYVYQPMEKLYMVLITTKNSNILEDLETLRLFSRVIPEYCRALEENEISEHCFDLIFAFDEIVALGYRENVNLAQIRTFTEMDSHEEKVFRAVRETQEREAKAEMRRKAKELQQARRDAERQGKKAPGFGGFGSSTVSGGSTTSMITETIIETDKPKVAPAPARPSGPSKALKLGAKGKEVDNFVDKLKSEGENIISSNMGKRTSEATKVHAPPINMESVHMKIEEKITLTCGRDGGLQNMELHGMIMLRISDDKFGRIRLHVENEDKKGVQLQTHPNVDKKLFTAESLIGLKNPEKSFPVNSDVGVLKWRLQTTEESFIPLTINCWPSESGNGCDVNIEYELQEDNLELNDVVITIPLPSGVGAPVIGEIDGEYRHDSRRNTLEWCLPVIDAKNKSGSLEFSIAGQPNDFFPVQVSFISKKNYCNIQVTKVTQVDGNSPVRFSTETTFLVDKYEIL
Consider B3, for which the “percent binding capacity relative to wild-type Arf1” value in assay [2] is 90%.

B4: H. sapiens Arf1 (residues 18–181) (domain or fragment)
chain: not shown
Usually Kd stands for the free concentration of one partner at which half of the binding sites on the other are occupied at equilibrium, for simple one-to-one binding. As to B4, the Kd in assay [3] is ~1 µM.
